# Reference: patent US20080027001A1, “NOGO RECEPTOR FUNCTIONAL MOTIFS, PEPTIDE MIMETICS, AND MUTATED FUNCTIONAL MOTIFS RELATED THERETO, AND METHODS OF USING THE SAME” (priority 2006, published 2008)
# Numbering of substitutions follows the chain as printed. In names and notes the source's numbering stands.
# T1: MAG-AP (Homo sapiens, UniProt P20916)
# T1 construct: human MAG; NM_002361; amino acids 1-516; made in house; NgR1 transiently transfected into COS-7 cells
# T1 sequence (P20916 20-516): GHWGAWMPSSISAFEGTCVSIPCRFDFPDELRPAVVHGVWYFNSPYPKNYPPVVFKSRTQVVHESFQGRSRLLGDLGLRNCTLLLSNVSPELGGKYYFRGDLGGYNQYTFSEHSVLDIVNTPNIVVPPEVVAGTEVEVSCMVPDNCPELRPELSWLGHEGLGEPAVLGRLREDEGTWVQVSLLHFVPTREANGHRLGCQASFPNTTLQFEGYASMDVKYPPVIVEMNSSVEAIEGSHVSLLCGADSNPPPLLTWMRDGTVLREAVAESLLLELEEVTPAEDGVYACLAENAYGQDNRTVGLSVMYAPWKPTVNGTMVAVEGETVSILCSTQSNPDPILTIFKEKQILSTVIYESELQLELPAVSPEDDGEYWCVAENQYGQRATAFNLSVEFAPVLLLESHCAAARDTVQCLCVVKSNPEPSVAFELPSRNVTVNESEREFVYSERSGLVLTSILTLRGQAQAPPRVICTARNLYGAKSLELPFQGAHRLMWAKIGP
# B1: EM7: human NgR1 point mutant K277D/R279D (protein)
# chain: CPGACVCYNEPKVTTSCPQQGLQAVPVGIPAASQRIFLHGNRISHVPAASFRACRNLTILWLHSNVLARIDAAAFTGLALLEQLDLSDNAQLRSVDPATFHGLGRLHTLHLDRCGLQELGPGLFRGLAALQYLYLQDNALQALPDDTFRDLGNLTHLFLHGNRISSVPERAFRGLHSLDRLLLHQNRVAHVHPHAFRDLGRLMTLYLFANNLSALPTEALAPLRALQYLRLNDNPWVCDCRARPLWAWLQDFDGSSSEVPCSLPQRLAGRDLKRLAANDLQGCAVATGPYHPIWTGRATDEEPLGLPKCCQPDAADKASVLEPGRPASAGNALKGRVPPGDSPPGNGSGPRHINDSPFGTLPGSAEPPLTAVRPEGSEPPGFPTSGPRRRPGCSRKNRTRSHCRLGQAGSGGGGTGDSEGS
# B2: EM8: human NgR1 point mutant K277A, R279A (protein)
# chain: B1 chain with D251A, D253A
# B3: EM11: human NgR1 point mutant R279A (protein)
# chain: B1 chain with D251K, D253A
# Molecular target: T1, MAG-AP
# Test: Cell-surface NgR binding assay, MAG-AP
# Conditions: mutant NgR1 in COS-7 cells; MAG-AP 10 μg/ml (FIG. 7B)
# Procedure: COS-7 cells were cotransfected with either wild type or mutant NgR1 constructs along with a CMV-beta-galactosidase plasmid (pCMVb, BD Biosciences, San Jose, Calif.) as a transfection control. Transfection was performed in 6-well plates using Lipofectamine 2000 (Invitrogen, Carlsbad, Calif.) following the manufacturer's protocol. The next day, cells were trypsinized and seeded at 30,000 cells per well in duplicate polylysine-coated 96-well plates (BD Biosciences); one plate was used in the binding assay, and the other was used to correct for transfection efficiency by measuring beta-galactosidase activity (described below). The remaining cells were separately plated and assayed for surface expression of the NgR1 proteins by immunocytochemistry (Example 1.9) and for total NgR1 protein levels by Western blot analysis (Example 1.8). […] Binding of AP-tagged ligands was measured using the Great EscAPe SEAP Kit (BD Biosciences) following the manufacturer's recommended protocol. […] Sixty microliters of diluted CSPD® substrate (Applied Biosystems, Foster City, Calif.) was then added per well, incubated for 10 minutes at room temperature, and then read on an LMAXII luminometer (Molecular Devices). […] Beta-galactosidase activity was measured using the luminescent beta-gal detection kit II (BD Biosciences) following the manufacturer's recommended protocol. […]
# Separate statistical analysis was performed for MAG-AP and Nogo-66-AP binding; a linear mixed model was fitted to the data using the receptors as the fixed effects and the experiments, replicates within each experiment, and receptor×experiment interactions as the random effects. […] Pairwise comparisons were performed between receptors in the framework of the linear mixed model, and raw p-values and Tukey-Kramer multiplicity-adjusted p-values were calculated. The corresponding 95% confidence intervals were also calculated.
# (SEQ ID NO:51). […] Nogo-66-AP(C47V) concentration was determined by measuring alkaline phosphatase activity and by Western blot analysis for alkaline phosphatase. […]
row,reduction in binding of soluble MAG (MAG-AP) relative to wild type NgR1,Molecule
1,57%,B1
2,58%,B2
3,36%,B3
